The nanobody polyreactivity screen of Harvey et al. (2022)

assay: yeast display, Sf9 membrane polyspecificity reagent, FACS + sequencing; frameworks hold sequencing errors
How it was run: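 Galactose induction of a Saccharomyces cerevisiae BJ5465 synthetic nanobody display library ran 36–48 hours. The cells were then stained for 1 hour at 4 °C with 10% biotinylated, detergent-solubilized Sf9 membrane reagent, pulled down on streptavidin microbeads and FACS-sorted into low and high (top ~1%) gates on expression and reagent-binding fluorescence. Labels for polyreactivity follow the gate of origin.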

Row | Sequence | polyreactivity (PSR sort gate)
1 | QVQLVESGGGLVQAGGSLRLSCAASGSTFETYAMGWYRQAPGKERELVAVITSDGSTNYADSVKGRFTISRDNAKNTVYLQMNSLKPEDTAGYYCNADYGFYVPAYPIYWIYEYWGQGTQVTVSS | low polyreactivity
2 | QVQLVESGGGLVQAGGSLRLSCAASGSTFEYNAMGGYRQAPGKERELVASSTNYADSVKGRFTISRDNAKKTVYLQMTSLKPEDTAVYYCAREQGVNRNHDYWGQGTQVTVSS | low polyreactivity
3 | QVQLVESGGGLVQAGGSLRLSCAASGSTFEYNAMGGYRQAPGKERELVASSTNYADSVKGRFTISRDNAKNTVYLQMNSLKPEDTAVYYCAREQGVNRNHDYWGQGTQVTVSS | low polyreactivity
4 | QVQLVESGGGLVQAGGSLRLSCAASGSTFEYYAMGWYRQAPGKERELVAAISSGPSTTYADSVKGRFTISRDNAKNTVYLQMNSLKPEDTAVYYCAARTYPSYYVTFEYWGQGTQVTVSS | low polyreactivity
5 | QVQLVESGGGLVQAGGSLRLSCAASGSTFEYYAMGWYRQAPGKERELVAAITGSGDNTYYADSVKGRFTISRDYAKNTVYLQMNSLKPEDTAVYYCAATLRVKGQYGRMYYWGQGTQVTVSS | high polyreactivity
6 | QVQLVESGGGLVQAGGSLRLSCAASGSTFEYYAMGWYRQAPGKERELVAAITRRGGSTYYADSVKGRFTISRDNAKNTVYLQMNSLKPEDTAVYYCAAVPTQKSPRTHDFWGQGTQVTVSS | low polyreactivity
7 | QVQLVESGGGLVQAGGSLRLSCAASGSTFFANAMGWYRQAPGKERELVAAITIGNTNYADSVKGRFTISRDNAKNTVYLQMNSLKPEDTAVYYCNASHVSHYRARDYWGQGTQVTVSS | low polyreactivity
8 | QVQLVESGGGLVQAGGSLRLSCAASGSTFFEYTMGWYRQAPGKEREFVADIRGRDGSTSYADSVKGRFTISRDNAKNTVYLQMNSLKPEDTAVYYCAVGVYPSYRGPTFSTRRDYWGQGTQVTVSS | low polyreactivity
9 | QVQLVESGGGLVQAGGSLRLSCAASGSTFFFYAMGWYRQAPGKERELVAAISRSGVSTYYADSVKGRFTISRDNAKNNVYLQMNSLKPEDTAVYYCAKGGSRDRYGYWGQGTQVTVSS | high polyreactivity
10 | QVQLVESGGGLVQAGGSLRLSCAASGSTFFGNTMGRYRQAPGKERELVAAISRRGGSTYYADSVKGRFTISRDNAKNTVYLQMNSLKPEDTAVYYCAKYYHSGGYTPGKYDYWGQGTQVTVSS | high polyreactivity
11 | QVQLVESGGGLVQAGGSLRLSCAASGSTFFGYAMGWYRQAPGKERELVAAIRYNGGHTYYADSVKGRFTISRDYAKNTVYLQMNRLKPEDTAVYYCAVDVVTSYYELTGSFNYWGQGTQVTVSS | low polyreactivity
12 | QVQLVESGGGLVQAGGSLRLSCAASGSTFFGYAMGWYRQAPGKERELVAAITYTGDTTYYADSVKGRFTISRDNAKNTVYLQMNSLNPEDTAVYYCAAGGYPVYTGRGMDYWGQGTQVTVSS | low polyreactivity
13 | QVQLVESGGGLVQAGGSLRLSCAASGSTFFHYAMGWYRQAPGKERELVAAIDSNGGSTYYADSVKGRFTISRDNAKNTVYLQMNSLKPEDTAVYYCAADDLAEFEYDYWGQGTQVTVSS | low polyreactivity
14 | QVQLVESGGGLVQAGGSLRLSCAASGSTFFLYAMGCYRQAPGNERELVAAISWRGASTYYADSVNGSFTISRDNAKNSVYLQMNSLKPDDTAVYYCAADLLPLYDDWGQGTQVTVSS | high polyreactivity
15 | QVQLVESGGGLVQAGGSLRLSCAASGSTFFLYAMGWYRQAPGKERELVAAITYTDGDTYYADSVKGRFTISRDIAKKTVYLQMNSLKPEDTAVYYCAADSWVQFDYWGQGTQVSVSS | low polyreactivity
16 | QVQLVESGGGLVQAGGSLRLSCAASGSTFFRNAMGWYRQAPGKERELVAAISKSGTSTYYADSVKGRFTISRDNAKNNVYLQMNSLKPEDTAVYYCAKYGFCYPQSYAYYYWGQGTQVTVSS | high polyreactivity
17 | QVQLVESGGGLVQAGGSLRLSCAASGSTFFRYAMGWYRQAPGKEREFVAAITSSGGNTYYADSVKGRFTISRDNAKNTVYFQMNSLKPEDTAVYYCAAVWYSPYVKYNYWGQGTQVTVSS | low polyreactivity
18 | QVQLVESGGGLVQAGGSLRLSCAASGSTFFRYAMGWYRQAPGKERELVAAISKSGASTYYADSVKGRFTISRDNAKNTVYLQMNSLKPEDTAVYYCNADVKKSSAREWQYGYDYWGQGTQVTVSS | low polyreactivity
19 | QVQLVESGGGLVQAGGSLRLSCAASGSTFFRYAMGWYRQAPGKERELVAAISKSGGTTSYADSVKGRITISRDNAKNTVYLQMNSLKQEDTAVYYCAARVQHIYDWGQGTQVTVSS | high polyreactivity
20 | QVQLVESGGGLVQAGGSLRLSCAASGSTFFRYAMGWYRQAPGKERELVAVINRGGSTYYADSVKGRFTISRDNAKNTVYLQMNSLKPEDTAVYYCAKRVFYPGAYRYYYWGQGTQVTVSS | high polyreactivity
21 | QVQLVESGGGLVQAGGSLRLSCAASGSTFFSNAMGWYRQAPGKERELVATIRVGGGSTYADSVKGRFTISRDNAKNTVYLQMNSLKPEDTADYYCAADDSDTRYTRSRYGYWGQGTQVTVSS | low polyreactivity
22 | QVQLVESGGGLVQAGGSLRLSCAASGSTFFSYAMGWYRQAPGKERELVAAITSNGGTTHYADSVKGRFTISRDNAKNTVYLQMNSLKPEDTADYYCAKAQGHVRGSRGLQGGRYDYWGQGTQVTVSS | low polyreactivity
23 | QVQLVESGGGLVQAGGSLRLSCAASGSTFFTNAMGWYRQAPGKERELVAAINFRGSTYYADSVKGRFTISRDNAKNTVYLQMNSLKPEDTAVYYCATDRQRSYRTVRSPIFNYWGQGTQVTVSS | high polyreactivity
24 | QVQLVESGGGLVQAGGSLRLSCAASGSTFFTNAMGWYRQAPGKERELVAGISYGGGRTYYADSVKGRFTISLDNAKNTVYLQMNRLKPEDTAVYYCNTVTSQAPYYSYVSWGQGTQVTVSS | high polyreactivity
25 | QVQLVESGGGLVQAGGSLRLSCAASGSTFFTNAMGWYRQAPGKERELVATITWSGGSTYADSVKGRFTISRDNAKNTVYLQMNSLKPEDTAVYYCAAESSSYWGDLGGALWLYDYWGQGTQVTVSS | low polyreactivity
26 | QVQLVESGGGLVQAGGSLRLSCAASGSTFFVNAMGWYRQAPGKERELVAAISTSGGRTYYADSVKGRFTISRDNAKNTVYLQMNSLKPEDTAVYYCAAFLRSPKGYYYWGQGTQVTVSS | high polyreactivity
27 | QVQLVESGGGLVQAGGSLRLSCAASGSTFFVNAMGWYRQPPGKERELVAAISTSGGRTYYADSVKGRFTISRDNAKNTVYLQMNSLKPEDTAVYYCAAYLRSPKGYYYWGQGTQVTVSS | high polyreactivity
28 | QVQLVESGGGLVQAGGSLRLSCAASGSTFFVYDMGWYRQAPGKERELVAAISISDGGTYYADSVKGRFTISRDNAKNTVYLQMNSQKPVDTAVYYCAADYSERYFRGYDYWGQGTQVTVSS | low polyreactivity
29 | QVQLVESGGGLVQAGGSLRLSCAASGSTFFYSMGWYRKAPRKERELVAAISWIDSITYYADSVKGRFTISRDNAKNTVYLQMNSLKPEDIAVYYCAAEGQNEGYDYWVQGTQVTVSS | high polyreactivity
30 | QVQLVESGGGLVQAGGSLRLSCAASGSTFFYYAMGWYRQAPGKERELVAAISRNGGSTYYADSVKGRFTISRDNAKNTVYLQMNSLKPEDTAVYYCNAYNLAGRYFDYWGQGTQVTVSS | high polyreactivity
